Laboratory results published in the supplement of paper PMC10126150.
± gives the standard deviation of the averaged measurements.

System: ATP
Experiment: switch fluorescence ratio, 500 uM ATP over buffer (Cy3 cluster intensity, sum of 5 cycles each) (fold (ratio)); higher = stronger signal-on switching upon ATP binding; sequences stand for … in TCGTCGGCAGCGTCAGATGTGTATAAGAGACAGTTTTTTTTTTTTTTTTTTTTTTTTT…TC
Settings: aptamer strand: ATP DNA aptamer (quencher-CACCTGGGGGAGTATTGCGGAGGAAGG + anchor), 100 nM annealed; ATP concentration: 500 uM
How it was run: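 Clusters carrying Cy3-labelled switching strands on a modified Illumina MiSeq flow-cell were annealed to 100 nM quencher-labelled ATP aptamer and imaged in selection buffer. They were imaged again after 15 min with 500 uM ATP at 22 °C, over five buffer/ATP cycles with NaOH stripping and re-annealing in between. For each cluster, the fluorescence ratio is the summed Cy3 intensity of the target cycles divided by that of the buffer cycles, averaged per switch-domain sequence. Clusters outside 100-1000 RFU were left out.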
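Further: ATP exposure 15 min at 22 °C before imaging.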

Sequence | switch fluorescence ratio
TGCCTGGCAG | 1.08 ± 0.1
TGCCTGGCTG | 0.99 ± 0.05
TGCCTTGGGG | 1.07 ± 0.16
TGCGAACACT | 1.002 ± 0.0064
TGCGAGGGCA | 1.02 ± 0.0087
TGCGATAGAA | 0.994 ± 0.043
TGCGATTTAC | 1.15 ± 0.024
TGCGCAAGGG | 1.27 ± 0.31
TGCGGAGTAC | 1.33 ± 0.14
TGCGGCCCAT | 0.979 ± 0.016
TGCGGCGGGG | 1.07 ± 0.035
TGCGGCTTCA | 1.01 ± 0.016
TGCGGGATTA | 1.1 ± 0.18
TGCGGGGGCA | 1.02 ± 0.025
TGCGGGGGGA | 1.03 ± 0.036
TGCGGGGGTA | 0.999 ± 0.019
TGCGGGGTTT | 1.02 ± 0.054
TGCGGGTGCT | 1.04 ± 0.042
TGCGGGTTTT | 1.02 ± 0.016
TGCGGTATGG | 1.03 ± 0.017
TGCGGTTGTT | 0.999 ± 0.046
TGCGGTTTGA | 1.01 ± 0.012
TGCGTAAGGG | 1.03 ± 0.011
TGCGTCGCCT | 1.013 ± 0.0049
TGCGTGGTGG | 1.03 ± 0.019

Sequence | switch fluorescence ratio
TGCGTTAAGG | 1 ± 0.031
TGCGTTATCG | 1.025 ± 0.0072
TGCGTTCTGG | 1.048 ± 0.007
TGCTAACTCG | 1 ± 0.018
TGCTAACTTT | 0.999 ± 0.052
TGCTAATTGA | 1.01 ± 0.037
TGCTACAGTT | 0.985 ± 0.024
TGCTACCGGG | 1.058 ± 0.0016
TGCTAGGCTA | 1.02 ± 0.025
TGCTAGGGGC | 1.07 ± 0.036
TGCTATATTT | 1.01 ± 0.024
TGCTATTGGT | 1.03 ± 0.035
TGCTCATTTT | 0.992 ± 0.032
TGCTCGGGCA | 1.014 ± 0.0072
TGCTCGGGGA | 1.021 ± 0.0023
TGCTGACGGT | 0.993 ± 0.029
TGCTGAGACA | 1.01 ± 0.012
TGCTGCAAAG | 0.9943 ± 0.0049
TGCTGGTAGC | 0.995 ± 0.042
TGCTGGTCGG | 0.985 ± 0.035
TGCTGGTGCC | 1.02 ± 0.013
TGCTGTGGGG | 1 ± 0.029
TGCTTAAGTT | 0.999 ± 0.021
TGCTTACAAA | 1.01 ± 0.027
TGCTTACCCA | 1.03 ± 0.017

Sequence | switch fluorescence ratio
TGCTTAGGAA | 1.005 ± 0.0072
TGCTTAGTTC | 0.959 ± 0.046
TGCTTCATTT | 1.023 ± 0.0018
TGCTTCGACG | 0.9996 ± 0.0012
TGCTTCTATA | 1.01 ± 0.051
TGCTTGAA | 0.962 ± 0.021
TGCTTGATGG | 0.9851 ± 0.0044
TGCTTGCGGA | 1.02 ± 0.023
TGCTTGTTCG | 1.029 ± 0.0097
TGCTTTAAGG | 1.02 ± 0.04
TGCTTTAAGT | 0.9912 ± 0.0029
TGCTTTCCTT | 1.035 ± 0.0034
TGCTTTGCCT | 1.03 ± 0.013
TGCTTTTATT | 1 ± 0.022
TGCTTTTGTC | 1.01 ± 0.078
TGCTTTTTAG | 0.988 ± 0.029
TGCTTTTTTT | 0.966 ± 0.024
TGGAAAAGAT | 0.995 ± 0.016
TGGAAAAGCG | 0.976 ± 0.012
TGGAAAGGCG | 1.04 ± 0.06
TGGAAATAAA | 0.9968 ± 0.0051
TGGAAATTTG | 1.01 ± 0.036
TGGAAGATGT | 1.02 ± 0.03
TGGAAGGTTT | 1.08 ± 0.11
TGGAATAGAA | 1.01 ± 0.02

Sequence | switch fluorescence ratio
TGGAATAGGG | 0.992 ± 0.011
TGGAATGGAA | 0.9717 ± 0.0076
TGGAATTGGA | 1.03 ± 0.093
TGGAATTTAA | 0.984 ± 0.017
TGGACGAGGG | 0.992 ± 0.041
TGGAGAAATT | 0.952 ± 0.13
TGGAGAAGGC | 0.977 ± 0.12
TGGAGATAGG | 0.994 ± 0.016
TGGAGATTTT | 1.015 ± 0.0062
TGGAGCCAGG | 1.08 ± 0.064
TGGAGCCTAT | 0.991 ± 0.031
TGGAGCTGGG | 1.31 ± 0.5
TGGAGGGGTA | 1.05 ± 0.053
TGGAGGTAGT | 0.993 ± 0.033
TGGAGGTTTT | 1.07 ± 0.045
TGGAGTAGC | 1.07 ± 0.078
TGGAGTCCAT | 1.026 ± 0.0098
TGGAGTGCTT | 0.983 ± 0.0022
TGGAGTGGAG | 0.989 ± 0.023
TGGATAAGGA | 0.983 ± 0.013
TGGATAATCG | 0.996 ± 0.024
TGGATAATTT | 0.9962 ± 0.0084
TGGATATGTG | 1.01 ± 0.018
TGGATCTGCC | 1.036 ± 0.0056
TGGATCTGCG | 1.01 ± 0.023

Sequence | switch fluorescence ratio
TGGATGAGGG | 0.99 ± 0.03
TGGATGGGAG | 0.9922 ± 0.0028
TGGATGGGCT | 1.03 ± 0.037
TGGATGGGGC | 1 ± 0.012
TGGATGGTGG | 0.9906 ± 0.0024
TGGATTAGGG | 1 ± 0.023
TGGATTAGTT | 0.96734 ± 0.00041
TGGATTGTGT | 0.9735 ± 0.0032
TGGATTTACT | 1.01 ± 0.031
TGGATTTTTT | 0.996 ± 0.036
TGGCAGGAAT | 0.9766 ± 0.0014
TGGCAGGGAT | 1.02 ± 0.067
TGGCAGGTTT | 1.015 ± 0.01
TGGCATGTGT | 0.986 ± 0.033
TGGCCGGGGG | 1 ± 0.02
TGGCCTAATG | 0.965 ± 0.013
TGGCCTGGGG | 0.979 ± 0.025
TGGCGAAGAG | 0.999 ± 0.011
TGGCGCACAA | 1.07 ± 0.013
TGGCGCCCGT | 1.08 ± 0.11
TGGCGCCCTG | 0.998 ± 0.069
TGGCGGAAAG | 0.977 ± 0.025
TGGCGGAATT | 1.02 ± 0.02
TGGCGGCCGA | 0.996 ± 0.021
TGGCGGGATA | 1.009 ± 0.0013

Sequence | switch fluorescence ratio
TGGCGGGGAG | 0.998 ± 0.021
TGGCGGGGGT | 0.981 ± 0.012
TGGCGGTGAC | 1.02 ± 0.01
TGGCGTAGTA | 1.01 ± 0.051
TGGCGTCTTA | 0.9875 ± 0.0033
TGGCGTTGTG | 0.9928 ± 0.0017
TGGCTAGATA | 0.973 ± 0.041
TGGCTATGCG | 0.969 ± 0.029
TGGCTCAGTG | 1.024 ± 0.0018
TGGCTGGTGT | 1.02 ± 0.08
TGGCTGTCTT | 0.97 ± 0.13
TGGCTTAACG | 0.961 ± 0.0041
TGGCTTTTAA | 1.013 ± 0.007
TGGGAAAATC | 1.63 ± 0.81
TGGGAAAGGG | 1.01 ± 0.036
TGGGAAATAG | 0.9957 ± 0.0041
TGGGAAATGG | 1 ± 0.024
TGGGAACCAG | 0.999 ± 0.015
TGGGAACGCG | 1.003 ± 0.0076
TGGGAAGAAT | 0.99323 ± 0.00037
TGGGAAGACC | 1.02 ± 0.025
TGGGAAGAGA | 1.02 ± 0.018
TGGGAAGGGA | 1.2 ± 0.37
TGGGAAGGGT | 0.996 ± 0.059
TGGGAAGGTA | 0.999 ± 0.029

Sequence | switch fluorescence ratio
TGGGAATATC | 1.05 ± 0.028
TGGGACACAG | 1.004 ± 0.007
TGGGACATGT | 1.02 ± 0.019
TGGGACCGCG | 1.03 ± 0.084
TGGGACGGTA | 1 ± 0.022
TGGGAGACAA | 0.9815 ± 0.001
TGGGAGCAGC | 1.02 ± 0.038
TGGGAGCCTG | 0.987 ± 0.015
TGGGAGGGAT | 0.989 ± 0.021
TGGGAGGGGC | 1.01 ± 0.021
TGGGAGTATT | 0.9815 ± 0.0069
TGGGAGTCGC | 0.97 ± 0.027
TGGGATAAAA | 1.01 ± 0.044
TGGGATAACT | 0.99 ± 0.038
TGGGATAGTT | 1.024 ± 0.0069
TGGGATCGAG | 0.9719 ± 0.0032
TGGGATCGTT | 0.98 ± 0.015
TGGGATGCGT | 0.988 ± 0.015
TGGGATGGGA | 1 ± 0.024
TGGGATGTTT | 0.982 ± 0.026
TGGGATTAGA | 1.021 ± 0.008
TGGGATTATC | 1.02 ± 0.027
TGGGATTCCC | 1.01 ± 0.017
TGGGATTGAA | 0.9806 ± 0.0079
TGGGCAGAAG | 0.9744 ± 0.0053

Sequence | switch fluorescence ratio
TGGGCAGGAT | 1.01 ± 0.041
TGGGCATTGG | 1.01 ± 0.018
TGGGCGCAGT | 0.986 ± 0.012
TGGGCGTTTA | 1.04 ± 0.026
TGGGCTCTTT | 1 ± 0.019
TGGGCTGCGG | 0.974 ± 0.04
TGGGCTTATC | 1.012 ± 0.0097
TGGGGAAACT | 1.15 ± 0.23
TGGGGAACAA | 1 ± 0.055
TGGGGAATAT | 1.18 ± 0.38
TGGGGAATGG | 1 ± 0.05
TGGGGACGTT | 0.971 ± 0.056
TGGGGAGCAA | 1.73 ± 0.074
TGGGGAGTGG | 1.02 ± 0.065
TGGGGAGTTA | 0.992 ± 0.021
TGGGGATCGT | 0.982 ± 0.026
TGGGGATCTA | 1.002 ± 0.006
TGGGGATCTG | 0.985 ± 0.03
TGGGGATCTT | 0.972 ± 0.057
TGGGGATGAT | 1 ± 0.022
TGGGGATTAC | 0.983 ± 0.012
TGGGGATTCC | 1.01 ± 0.016
TGGGGATTGA | 1 ± 0.03
TGGGGATTTC | 1.1 ± 0.16
TGGGGATTTG | 0.99 ± 0.032
